How the values were obtained:
[1] = target: C1q (UniProt P02745); test: SPR, antibody on CM5 chip, C1q injected, pH 7.4 HBS-EP
[2] = target: dimeric FcγRIIIa-F158-GST (human) (human) (UniProt P08637); test: SPR, antibody on CM5 chip, receptor injected, pH 7.4 HBS-EP
[3] = target: monomeric FcγRI-His (human) (human) (UniProt P12314); test: as above
[4] = target: dimeric FcγRIIa-R131-GST (human) (human) (UniProt P12318); test: as above
[5] = target: dimeric FcγRIIa-H131-GST (human) (human) (UniProt P12318); test: as above
Chain of dimeric FcγRIIa-H131-GST (human) (human) (P12318 34-218 limits assumed): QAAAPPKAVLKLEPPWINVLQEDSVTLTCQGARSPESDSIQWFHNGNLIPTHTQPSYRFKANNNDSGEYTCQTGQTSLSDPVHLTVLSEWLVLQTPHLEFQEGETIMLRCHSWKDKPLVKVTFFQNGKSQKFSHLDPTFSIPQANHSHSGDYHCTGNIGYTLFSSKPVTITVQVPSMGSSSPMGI

[6] = target: dimeric FcγRIIb-GST (human) (human) (UniProt P31994); test: as above
Chain of dimeric FcγRIIb-GST (human) (human) (P31994 43-217 limits assumed): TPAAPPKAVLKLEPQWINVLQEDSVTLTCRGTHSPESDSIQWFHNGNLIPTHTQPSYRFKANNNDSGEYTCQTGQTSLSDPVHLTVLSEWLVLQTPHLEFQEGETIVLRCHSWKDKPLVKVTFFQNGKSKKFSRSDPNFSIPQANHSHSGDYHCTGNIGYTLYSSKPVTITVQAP

[7] = target: dimeric FcγRIIa-R131-GST (human) (human) (UniProt P12318); test: ELISA: antibody coated, serially diluted GST-FcγRIIaR131 (the concentration is that of the receptor), anti-GST HRP
[8] = target: single chain FcRn-β2m-his (human scFcRn, Acro Biosystems Cat. No. FCM-H5286) (human) (UniProt P55899); test: SPR, antibody on CM5 chip, scFcRn 400-25 nM, pH 5.8 PBS, 1:1 Langmuir
Chain of single chain FcRn-β2m-his (human scFcRn, Acro Biosystems Cat. No. FCM-H5286) (human) (P55899 other isoform, or with tags, fused parts or gaps): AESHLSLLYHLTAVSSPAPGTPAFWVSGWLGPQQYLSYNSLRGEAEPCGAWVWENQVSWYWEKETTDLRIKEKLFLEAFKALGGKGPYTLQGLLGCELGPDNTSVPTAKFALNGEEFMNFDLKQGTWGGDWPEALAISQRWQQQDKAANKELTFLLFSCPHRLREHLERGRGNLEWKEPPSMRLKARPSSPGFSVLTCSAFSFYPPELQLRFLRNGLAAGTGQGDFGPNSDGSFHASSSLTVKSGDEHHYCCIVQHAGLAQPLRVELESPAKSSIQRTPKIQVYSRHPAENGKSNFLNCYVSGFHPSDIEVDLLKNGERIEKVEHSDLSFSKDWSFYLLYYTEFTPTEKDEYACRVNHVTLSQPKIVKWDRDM

[9] = target: single chain FcRn-β2m-his (human scFcRn, Acro Biosystems Cat. No. FCM-H5286) (human) (UniProt P55899); test: SPR, antibody on CM5 chip, FcRn/β2m injected, pH 5.8 (same values as Table 5)
[10] = target: dimeric FcγRIIb-GST (human) (human) (UniProt P31994); test: ELISA: antibody coated, serially diluted GST-FcγRIIb (the concentration is that of the receptor), anti-GST HRP
[11] = target: single chain FcRn-β2m-his (human scFcRn, Acro Biosystems Cat. No. FCM-H5286) (human) (UniProt P55899); test: SPR, antibody on CM5 chip, scFcRn, pH 5.8
[12] = target: single chain FcRn-β2m-his (human scFcRn, Acro Biosystems Cat. No. FCM-H5286) (human) (UniProt P55899); test: SPR, antibody on CM5 chip, scFcRn 400-25 nM, pH 5.8 PBS
[13] = target: single chain FcRn-β2m-his (human scFcRn, Acro Biosystems Cat. No. FCM-H5286) (human) (UniProt P55899); test: FACS of E. coli spheroplasts displaying the IgG, 10 nM scFcRn-FITC at pH 5.8
[14] = target: dimeric human FcRn-β2m-GST (human) (UniProt P55899); test: FACS of E. coli spheroplasts displaying the IgG, 50 nM dFcRn-GST-APC at pH 7.4
Chain of dimeric human FcRn-β2m-GST (human) (P55899 other isoform, or with tags, fused parts or gaps limits assumed): as the sequence (P55899 other isoform, or with tags, fused parts or gaps) above

[15] = target: single chain FcRn-β2m-his (human scFcRn, Acro Biosystems Cat. No. FCM-H5286) (human) (UniProt P55899); test: SPR at pH 7.4 PBS, scFcRn on CM5 chip at medium density (2000 RU), antibody 400-25 nM injected
[16] = target: single chain FcRn-β2m-his (human scFcRn, Acro Biosystems Cat. No. FCM-H5286) (human) (UniProt P55899); test: SPR at pH 7.4 PBS, scFcRn on CM5 chip at high density (4000 RU), antibody 400-25 nM injected
[17] = target: dimeric human FcRn-β2m-GST (human) (UniProt P55899); test: ELISA at pH 7.4: antibody coated, serially diluted dFcRn (the concentration is that of dFcRn), anti-GST HRP

Chain of dimeric FcγRIIa-R131-GST (human) (human) (P12318 34-218 H167R limits assumed): as the sequence (P12318 34-218 limits assumed) above, with H134R counted along it
Chain of monomeric FcγRI-His (human) (human) (P12314 16-288 limits assumed): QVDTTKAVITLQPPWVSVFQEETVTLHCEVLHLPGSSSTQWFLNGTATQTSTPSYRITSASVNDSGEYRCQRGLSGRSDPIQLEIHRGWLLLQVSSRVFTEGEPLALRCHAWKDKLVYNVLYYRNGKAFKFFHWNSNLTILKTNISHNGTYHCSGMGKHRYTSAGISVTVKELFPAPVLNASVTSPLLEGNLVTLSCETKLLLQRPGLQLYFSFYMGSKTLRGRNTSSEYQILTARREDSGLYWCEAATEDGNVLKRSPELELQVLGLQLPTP
Chain of C1q (P02745 23-245 limits assumed, chain 1 of 3): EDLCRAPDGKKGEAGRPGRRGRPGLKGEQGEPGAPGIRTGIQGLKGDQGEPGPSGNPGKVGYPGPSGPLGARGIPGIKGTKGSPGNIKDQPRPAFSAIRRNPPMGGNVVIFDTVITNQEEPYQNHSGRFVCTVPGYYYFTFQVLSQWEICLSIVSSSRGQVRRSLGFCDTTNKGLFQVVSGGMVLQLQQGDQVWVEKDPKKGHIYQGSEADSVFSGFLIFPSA
Chain of C1q (P02746 28-253 limits assumed, chain 2 of 3, further chain): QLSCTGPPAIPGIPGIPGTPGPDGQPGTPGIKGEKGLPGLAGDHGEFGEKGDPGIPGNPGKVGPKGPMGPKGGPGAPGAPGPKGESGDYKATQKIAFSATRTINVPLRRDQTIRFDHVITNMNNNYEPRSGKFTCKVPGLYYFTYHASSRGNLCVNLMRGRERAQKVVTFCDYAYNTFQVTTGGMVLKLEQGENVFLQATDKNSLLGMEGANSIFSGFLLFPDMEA
Chain of C1q (P02747 29-245 limits assumed, chain 3 of 3, further chain): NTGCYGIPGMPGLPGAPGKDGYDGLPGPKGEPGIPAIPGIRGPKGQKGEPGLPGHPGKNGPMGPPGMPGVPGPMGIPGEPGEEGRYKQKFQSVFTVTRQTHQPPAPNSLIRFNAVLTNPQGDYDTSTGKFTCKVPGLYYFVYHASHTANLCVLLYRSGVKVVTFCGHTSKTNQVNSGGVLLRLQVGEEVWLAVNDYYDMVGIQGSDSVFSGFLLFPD
Chain of dimeric FcγRIIIa-F158-GST (human) (human) (P08637 17-208 limits assumed): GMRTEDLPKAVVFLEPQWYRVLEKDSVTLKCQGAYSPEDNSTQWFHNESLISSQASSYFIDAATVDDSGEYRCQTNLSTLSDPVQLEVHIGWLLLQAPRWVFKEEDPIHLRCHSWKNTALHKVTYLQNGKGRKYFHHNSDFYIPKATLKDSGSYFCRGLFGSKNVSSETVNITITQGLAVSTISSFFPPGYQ
Chain of Herceptin-IgG4 (wild type IgG4 with the Fab of trastuzumab) (antibody) (Fc): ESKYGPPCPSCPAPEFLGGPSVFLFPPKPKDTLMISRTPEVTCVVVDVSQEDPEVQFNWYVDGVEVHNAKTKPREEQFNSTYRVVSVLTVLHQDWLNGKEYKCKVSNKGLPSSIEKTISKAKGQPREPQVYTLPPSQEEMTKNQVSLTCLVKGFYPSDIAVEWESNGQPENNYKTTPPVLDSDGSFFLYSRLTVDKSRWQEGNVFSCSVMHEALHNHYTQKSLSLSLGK

“Herceptin-DHS (L309D; Q311H; N434S) (antibody)” was tested, and the Kd [1] was 0.025 µM, the Kd [2] was 0.48 µM and the Kd [3] was 0.00028 µM. For the same substance, the Kd [4] was 0.95 µM, the Kd [5] was 0.27 µM and the Kd [6] was 2.91 µM. For the same substance, the EC50 (read off the curve) [7] was 0.007 µM, the Kd [8] was 0.111 µM and the Kd [9] was 0.11 µM. For the same substance, the EC50 (read off the curve) [10] was 0.004 µM.

Substance “Herceptin-EDH (V264E, L309D, Q311H) (antibody)” has a Kd [8] of 0.487 µM, a koff [8] of 0.23 s⁻¹ and a kon [8] of 465000 M⁻¹ s⁻¹.

With “Herceptin-EDHS (V264E, L309D, Q311H, N434S) (antibody)” the Kd [8] was 0.093 µM, the koff [8] was 0.11 s⁻¹ and the kon [8] was 1.2e+06 M⁻¹ s⁻¹. It also gave a fold enhanced affinity than Herceptin [11] of 5.9 fold.

“Herceptin-IgG4 (wild type IgG4 with the Fab of trastuzumab) (antibody)” showed a Kd [12] of 2.46 µM.

In the case of “TEDHY (A231T, V264E, L309D, Q311H, and N434Y), IgG displayed on E. coli spheroplasts (antibody)”, the M (mean fluorescence intensity) [13] is reported as 231 and the M (mean fluorescence intensity) [14] is reported as 237.

Work on “EDHS (V264E, L309D, Q311H, and N434S), IgG displayed on E. coli spheroplasts (antibody)” yielded a M (mean fluorescence intensity) [13] of 239 and a M (mean fluorescence intensity) [14] of 60.3.

Substance M428L/N434S (antibody) has a M (mean fluorescence intensity) [13] of 152 and a M (mean fluorescence intensity) [14] of 83.3.

“Herceptin-YTE (M252Y/S254T/T256E) (antibody)” gave a Kd [1] of 0.042 µM, a Kd [2] of 4.41 µM and a Kd [3] of 0.00029 µM. The Kd [4] was 3.2 µM, the Kd [5] was 0.62 µM and the Kd [6] was 6.24 µM. For the same substance, the Kd [8] was 0.023 µM, the Kd [9] was 0.023 µM and the Kd [15] was 4.73 µM. The Kd [16] was 4.29 µM.

For “EDHY (V264E, L309D, Q311H, and N434Y), IgG displayed on E. coli spheroplasts (antibody)”, the M (mean fluorescence intensity) [13] was 265 and the M (mean fluorescence intensity) [14] was 379.

In the case of “Herceptin-EDHY (V264E, L309D, Q311H, N434Y) (antibody)”, the Kd [8] is reported as 0.028 µM, the koff [8] is reported as 0.038 s⁻¹ and the kon [8] is reported as 1.4e+06 M⁻¹ s⁻¹. For the same substance, the fold enhanced affinity than Herceptin [11] was 19.6 fold.

Substance Herceptin-LS (M428L/N434S) (antibody) has a Kd [1] of 0.016 µM, a Kd [3] of 0.00058 µM and a Kd [4] of 1.21 µM. The Kd [5] was 0.41 µM, the Kd [6] was 2.25 µM and the Kd [8] was 0.055 µM. The EC50 (read off the curve) [17] was 0.01 µM, the Kd [9] was 0.055 µM and the Kd [15] was 0.0587 µM. For the same substance, the Kd [16] was 0.0227 µM.

“EDH (V264E, L309D, and Q311H), IgG displayed on E. coli spheroplasts (antibody)” was tested, and the M (mean fluorescence intensity) [13] was 135 and the M (mean fluorescence intensity) [14] was 20.4.
